Results from patent US20250340613A1 (JOINT STOCK COMPANY BIOCAD, published 2025).

T1: hAng2_H6F, Angiopoietin-2 (Homo sapiens) aa 19-496 (Homo sapiens, UniProt O15123 19-496)
T1 construct: also called hAng-H6F; not shown: His and FLAG tags implied by the name 'H6F'
T1 sequence: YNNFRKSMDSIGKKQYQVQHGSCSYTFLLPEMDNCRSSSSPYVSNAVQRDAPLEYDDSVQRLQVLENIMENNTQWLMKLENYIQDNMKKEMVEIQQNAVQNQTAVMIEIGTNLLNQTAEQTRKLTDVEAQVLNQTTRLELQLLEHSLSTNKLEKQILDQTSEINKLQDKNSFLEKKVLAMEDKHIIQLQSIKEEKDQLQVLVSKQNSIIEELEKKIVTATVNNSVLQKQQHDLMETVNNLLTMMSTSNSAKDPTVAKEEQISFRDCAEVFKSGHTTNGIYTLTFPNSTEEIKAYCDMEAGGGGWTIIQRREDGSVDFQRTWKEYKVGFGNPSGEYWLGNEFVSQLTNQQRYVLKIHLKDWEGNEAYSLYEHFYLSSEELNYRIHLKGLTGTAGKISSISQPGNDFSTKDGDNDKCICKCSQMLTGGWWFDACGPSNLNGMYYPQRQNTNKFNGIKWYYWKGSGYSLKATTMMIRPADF

T2: hCD38-Avi, ADP-ribosyl cyclase/cyclic ADP-ribose hydrolase 1 (Homo sapiens) aa 43-300 (Homo sapiens, UniProt P28907 43-300)
T2 construct: range 43-300; not shown: Avi tag as the name implies
T2 sequence (looked up): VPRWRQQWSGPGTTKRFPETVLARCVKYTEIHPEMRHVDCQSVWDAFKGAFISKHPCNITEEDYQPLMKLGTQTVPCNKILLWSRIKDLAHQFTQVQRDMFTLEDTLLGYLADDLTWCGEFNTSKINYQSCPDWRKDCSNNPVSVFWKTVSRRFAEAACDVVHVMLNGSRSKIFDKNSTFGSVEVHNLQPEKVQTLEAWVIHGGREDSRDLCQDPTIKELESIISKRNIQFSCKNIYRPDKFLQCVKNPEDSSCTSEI

T3: C-Avi-His-TEVs-HSA_hBCMA, Tumor necrosis factor receptor superfamily member 17 (Homo sapiens) aa 1-54 (Homo sapiens, UniProt Q02223 1-54)
T3 construct: range 1-54; not shown: Avi, His, TEV site and HSA parts as the name implies
T3 sequence (looked up): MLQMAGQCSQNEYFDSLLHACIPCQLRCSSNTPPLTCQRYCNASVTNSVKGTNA

T4: IL5R-His, Interleukin-5 receptor subunit alpha (Homo sapiens) aa 22-342 (Homo sapiens, UniProt Q01344 22-342)
T4 construct: not shown: His tag as the name implies
T4 sequence (looked up): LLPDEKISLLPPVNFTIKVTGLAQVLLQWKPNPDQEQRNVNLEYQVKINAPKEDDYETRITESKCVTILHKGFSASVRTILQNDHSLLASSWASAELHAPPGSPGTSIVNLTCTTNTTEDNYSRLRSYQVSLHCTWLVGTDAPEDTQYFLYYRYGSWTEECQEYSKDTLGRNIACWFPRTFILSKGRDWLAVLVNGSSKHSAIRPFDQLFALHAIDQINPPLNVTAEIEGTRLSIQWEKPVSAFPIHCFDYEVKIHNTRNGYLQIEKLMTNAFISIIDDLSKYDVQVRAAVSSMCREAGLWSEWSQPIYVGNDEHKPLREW

B1: 02-006, bivalent bispecific chimeric antibody that specifically binds to PD1 and CSF1R (bispecific antibody, human IgG1, kappa, L234A L235A)
heavy 1: QVQLVQSGGGLVQPGGSLRLSCAASGFTFSSYWMYWVRQVPGKGLEWVSAIDTGGGRTYYADSVKGRFAISRVNAKNTMYLQMNSLRAEDTAVYYCARDEGGGTGWGVLKDWPYGLDAWGQGTLVTVSSASTKGPSVFPLAPSSKSTSGGTAALGCLVKDYFPEPVTVSWNSGALTSGVHTFPAVLQSSGLYSLSSVVTVPSSSLGTQTYICNVNHKPSNTKVDKRVEPKSCDKTHTCPPCPAPEAAGGPSVFLFPPKPKDTLYITREPEVTCVVVDVSHEDPEVKFNWYVDGVEVHNAKTKPREEQYNSTYRVVSVLTVLHQDWLNGKEYKCKVSNKALPAPIEKTISKAKGQPREPQVCTLPPSRDELTKNQVSLSCAVKGFYPSDIAVEWESNGQPENNYKTTPPVLDSDGSFFLVSKLTVDKSRWQQGNVFSCSVMHEALHNHYTQKSLSLSPGK
light 1: QPVLTQPLSVSVALGQTARITCGGNNIGSKNVHWYQQKPGQAPVLVIYRDSNRPSGIPERFSGSNSGNTATLTISRAQAGDEADYYCQVWDSSTAVFGTGTKLTVLQRTVAAPSVFIFPPSDEQLKSGTASVVCLLNNFYPREAKVQWKVDNALQSGNSQESVTEQDSKDSTYSLSSTLTLSKADYEKHKVYACEVTHQGLSSPVTKSFNRGEC
heavy 2: not shown
light 2: QAGLTQPPSVSVAPGQTARITCGGNNIGSKSVHWYQQKPGQAPVLVVYGDSDRPSGIPERFSGSNSGNTATLTISRVEAGDEADYYCQVWDISSDHVVFGGGTQLTVLQRQVKPEAWLSSGPSPGPGRLQLVCHVSGFYPKPVWVMWMRGEQEQQGTQLGDILPNANWTWYLRATLDVADGEAAGLSCRVKHSSLEGQDIILYWRGSC
notes: Produced in CHO cells
B2: 02-008, bivalent bispecific chimeric antibody that specifically binds to CD20 and CSF1R (bispecific antibody, human IgG1, kappa, L234A L235A)
heavy 1: EVQLVESGGGLVQPGGSLRLSCAASGYTFTSYNMHWVRQAPGKGLEWVGAIYPGNGDTSYNQKFKGRFTISVDKSKNTLYLQMNSLRAEDTAVYYCARVVYYSNSYWYFDVWGQGTLVTVSSASTKGPSVFPLAPSSKSTSGGTAALGCLVKDYFPEPVTVSWNSGALTSGVHTFPAVLQSSGLYSLSSVVTVPSSSLGTQTYICNVNHKPSNTKVDKRVEPKSCDKTHTCPPCPAPEAAGGPSVFLFPPKPKDTLYITREPEVTCVVVDVSHEDPEVKFNWYVDGVEVHNAKTKPREEQYNSTYRVVSVLTVLHQDWLNGKEYKCKVSNKALPAPIEKTISKAKGQPREPQVCTLPPSRDELTKNQVSLSCAVKGFYPSDIAVEWESNGQPENNYKTTPPVLDSDGSFFLVSKLTVDKSRWQQGNVFSCSVMHEALHNHYTQKSLSLSPGK
light 1: DIQMTQSPSSLSASVGDRVTITCRASSSVSYMHWYQQKPGKAPKPLIYAPSNLASGVPSRFSGSGSGTDFTLTISSLQPEDFATYYCQQWSFNPPTFGQGTKVEIKRTVAAPSVFIFPPSDEQLKSGTASVVCLLNNFYPREAKVQWKVDNALQSGNSQESVTEQDSKDSTYSLSSTLTLSKADYEKHKVYACEVTHQGLSSPVTKSFNRGEC
heavy 2: not shown
light 2: B1 light 2
notes: Produced in CHO cells
B3: 02-009, bivalent bispecific chimeric antibody that specifically binds to CD20 and CSF1R (bispecific antibody, human IgG1, kappa, L234A L235A)
heavy 1: QVQLVESGGGLVRPGGSLRLSCAASEFTFDDYAMSWVRQAPGKGLEWVSAISWNGGSTNYADSVKGRFTISRDNAKNSLYLQMNSLRAEDTALYYCASTVEVAHRRLYKYLEVWGQGTLVTVSSASTKGPSVFPLAPSSKSTSGGTAALGCLVKDYFPEPVTVSWNSGALTSGVHTFPAVLQSSGLYSLSSVVTVPSSSLGTQTYICNVNHKPSNTKVDKRVEPKSCDKTHTCPPCPAPEAAGGPSVFLFPPKPKDTLYITREPEVTCVVVDVSHEDPEVKFNWYVDGVEVHNAKTKPREEQYNSTYRVVSVLTVLHQDWLNGKEYKCKVSNKALPAPIEKTISKAKGQPREPQVCTLPPSRDELTKNQVSLSCAVKGFYPSDIAVEWESNGQPENNYKTTPPVLDSDGSFFLVSKLTVDKSRWQQGNVFSCSVMHEALHNHYTQKSLSLSPGK
light 1: QAGLTQPPSVSVAPGQTARITCGGNNIGSKSVHWYQQKPGQAPVLVVYGDSDRPSGIPERFSGSNSGNTATLTISRVEAGDEADYYCQVWDISSDHVVFGGGTQLTVLRTVAAPSVFIFPPSDEQLKSGTASVVCLLNNFYPREAKVQWKVDNALQSGNSQESVTEQDSKDSTYSLSSTLTLSKADYEKHKVYACEVTHQGLSSPVTKSFNRGEC
heavy 2: not shown
light 2: DIQMTQSPSSLSASVGDRVTITCRASSSVSYMHWYQQKPGKAPKPLIYAPSNLASGVPSRFSGSGSGTDFTLTISSLQPEDFATYYCQQWSFNPPTFGQGTKVEIKQRQVKPEAWLSSGPSPGPGRLQLVCHVSGFYPKPVWVMWMRGEQEQQGTQLGDILPNANWTWYLRATLDVADGEAAGLSCRVKHSSLEGQDIILYWRGSC
notes: Produced in CHO cells

Assays:
[1] = target: T5, extracellular domain of the human CSF1R protein (hCSF1R_His) (Homo sapiens, UniProt P07333 20-512); assay: BLI Octet RED 384; antibody on ProA sensor, antigen 30 ug/ml (522.5 nM); response at end of association
T5 construct: range 20-512; Molecular weight 57.4 kDa; made in CHO cells; also called hCSF1_His; not shown: C-terminal His and FLAG tags
Protocol: (§1) Experimental study of nonspecific binding of bispecific chimeric antibodies to non-target antigens was performed on Forte Bio Octert RED 384. Protein A (ProA) biosensors (ForteBio) were immersed into a solution containing antibodies at a concentration of 10 μg/ml for 150 seconds to immobilize same. The baseline was recorded in a 1×KB solution for 30 seconds. The antibody-loaded sensors were then immersed into wells containing non-target antigens at a concentration of 30 μg/ml for 150 seconds. Complex dissociation was then recorded for 30 seconds.
(§2) The reference sensors went through all the steps as the sensors used to record analyte sensograms did, with the exception of the association step—at the association step, the sensors were immersed in a kinetic buffer solution without analyte (the reference sensor signals were measured in parallel with the recording of the main sensograms). The reference signal was subtracted from the signal received on sensors interacting with the analyte during the processing of sensograms.
(§3) Sensograms were processed using ForteBio Octet Data Analysisn 9.0 software. To report no non-specific interaction, the recorded signal level was checked at the end of the association step (the response parameter).

[2] = target: T1, hAng2_H6F, Angiopoietin-2 (Homo …); assay: BLI Octet RED 384; antibody on ProA sensor, antigen 30 ug/ml (510.2 nM); response at end of association
Protocol: as §1, §2, §3

[3] = target: T2, hCD38-Avi, ADP-ribosyl cyclase/cyclic …; assay: BLI Octet RED 384; antibody on ProA sensor, antigen 30 ug/ml
[4] = target: T3, C-Avi-His-TEVs-HSA_hBCMA, Tumor …; assay: as above
[5] = target: T4, IL5R-His, Interleukin-5 receptor …; assay: as above
[6] = target: T6, biotinylated peptide [NH2]…JQS[CH2CH2]biotin comprising a fragment of the human CD20 sequence (human, [NH2] at the N-terminus; [CH2CH2]biotin at the C-terminus; the letter J at position 20 is printed so and is not a standard residue code); assay: BLI Octet RED 384; biotinylated peptide on SAX sensor, antibody in solution; 1:1 global fit
T6 construct: also called CD20 peptide
Protocol: In the case of the biotinylated CD20 peptide, the peptide at a concentration of 5 μg/ml was immobilized on the surface of SAX sensors (High Precision Streptavidin (SAX) biosensors, ForteBio) for 120 seconds. The baseline was recorded in a 1×KB solution for 120 seconds. The sensors containing the loaded peptide were immersed into wells containing the antibody solution (analyte) in 1×KB for 15 seconds. Measurements were carried out for solutions with analyte (antibodies in the case of CD20 peptide) at concentrations of 150 μg/ml, 75 μg/ml, 37.5 μg/ml. Complex dissociation was recorded in 1×KB for 120 seconds.
All measurements were carried out at 30° C., orbital mixing speed was 1,000 revolutions per minute.
To obtain numerical values of kinetic constants (kₒₙ is the on/association rate constant, kdis is the dissociation rate constant, KD is the equilibrium dissociation constant or affinity constant), the resulting sensograms were processed according to the 1:1 interaction model using Global Fit (selection of one set of kon, kdis, KD constants to analyze several sensograms of different concentrations) of the ForteBio Octet Data Analysis 9.0 software.

T6 sequence (peptide, as listed by the source): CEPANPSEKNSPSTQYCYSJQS
T5 sequence (P07333 20-512 limits assumed): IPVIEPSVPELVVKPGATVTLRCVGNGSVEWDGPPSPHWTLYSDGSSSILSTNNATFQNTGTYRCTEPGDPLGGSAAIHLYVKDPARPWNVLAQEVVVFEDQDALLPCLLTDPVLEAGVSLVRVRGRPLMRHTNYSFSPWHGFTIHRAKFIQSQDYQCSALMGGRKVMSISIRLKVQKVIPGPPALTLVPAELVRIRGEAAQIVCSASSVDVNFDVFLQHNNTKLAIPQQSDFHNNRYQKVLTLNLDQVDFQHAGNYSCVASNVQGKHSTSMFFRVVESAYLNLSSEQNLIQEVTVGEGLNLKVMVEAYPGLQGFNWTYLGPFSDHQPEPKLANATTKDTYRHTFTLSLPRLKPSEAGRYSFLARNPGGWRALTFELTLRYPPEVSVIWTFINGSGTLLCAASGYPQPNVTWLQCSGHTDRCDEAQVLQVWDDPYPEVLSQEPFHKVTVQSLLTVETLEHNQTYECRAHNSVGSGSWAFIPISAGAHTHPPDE

Row | Binder | Signal level (nm) [1] [nm] | Signal level (nm) [2] [nm] | binding result [3] | binding result [4] | binding result [5] | Kd [6] [nM] | koff [6] [s⁻¹] | kon [6] [M⁻¹ s⁻¹]
1 | B1 | 0.573 | -0.0239 | no binding (tested: 854.7 nM) | no binding (tested: 391.2 nM) | no binding (tested: 757.6 nM) | – | – | –
2 | B2 | 0.548 | -0.0124 | no binding (tested: 854.7 nM) | – | no binding (tested: 757.6 nM) | 892 | 0.329 | 369000
3 | B3 | 0.564 | -0.0114 | – | – | – | 820 | 0.177 | 216000
